The results in this text go back to publication PMC3979677, “Low-Resolution Structure of the Full-Length Barley (Hordeum vulgare) SGT1 Protein in Solution, Obtained Using Small-Angle X-Ray Scattering” (PLoS ONE, 2014).

Data set [1] deals with the molecule itself. The data set is described as follows: SAXS; full-length SGT1 in solution, 3.46, 3.41 and 2.71 mg/mL in 50 mM Tris/HCl pH 7.5, 5 mM DTT with 0, 0.5 or 1 M NaCl, 10°C; SVD and MCR-ALS analysis; dimer to monomers.
Data set [2] concerns the molecule itself. The data set is described as follows: SAXS; TPR domain in solution, 2 mg/ml in 50 mM Tris HCl pH 7.5, 5 mM DTT with 0, 100, 200, 400, 600 or 800 mM KCl, 15°C; SVD and MCR-ALS analysis; dimer to monomers.

B1: full-length barley (Hordeum vulgare) SGT1 protein (natural protein, Hordeum vulgare (barley), UniProt Q8W516 1-373, looked up)
chain: MAAAAASDLESKAKEAFVDDDFELAAELYTQAIEAGPATAELYADRAQAHIKLGSYTEAVADANKAIELDPSMHKAYLRKGSACIKLEEYQTAKAALEVGSSYASGDSRFTRLMKECDDRIAEEASQAPVKNAAAAVAPATSSGATTVVTEAEDQDGENMENAQPTVEVPSKPKYRHDYYNTPTEVVLTIFAKGVPADSVVVDFGEQMLSVSIELPGEEPYHFQPRLFSKIVPDKCKYTVLSTKVEIRLAKAEPVTWTSLDYTGKPKAPQKINVPAESAQRPSYPSSKSKKDWDKLEAEVKKQEKDEKLDGDAALNKFFREIYSDADEDMRRAMMKSFVESNGTVLSTNWKDVGKKTVEGSPPDGMELKKWEY
notes: SGT1 (suppressor of the G2 allele of skp1), Hordeum vulgare, full length cDNA; 373 amino acids in total; Cloned in pET151-D TOPO; His-TEV site cleaved with His-TEV protease (Ser219Val); also called barley SGT1; HvSgt1; source: E. coli BL21 DE3 Codon Plus, purified (HisTrap Ni-NTA, Superdex 200, TEV cleavage, HisTrap, MonoQ)
B1: in data set [1], the stoichiometry N – broadly, a count of units in the complex or per binding partner – is 2.

B2: TPR domain from Hordeum vulgare SGT1 (6-124) (domain or fragment, Hordeum vulgare (barley), UniProt Q8W516 6-124, looked up)
chain: ASDLESKAKEAFVDDDFELAAELYTQAIEAGPATAELYADRAQAHIKLGSYTEAVADANKAIELDPSMHKAYLRKGSACIKLEEYQTAKAALEVGSSYASGDSRFTRLMKECDDRIAEE
notes: SGT1, Hordeum vulgare, tetratricopeptide repeats (TPR) domain, residues 6-124; Cloned in pETM11 (NcoI/EcoRI) from pET151-HvSgt1; his-tag cleaved with TEV protease; source: E. coli BL21(DE3) Codon Plus, purified (HisTrap, TEV cleavage, HisTrap, Superdex 200)
As for B2, the “stoichiometry N” value in data set [2] worked out at 2.
